Target: hMLH1-hMLH3 (human, UniProt P40692;Q9UHC1)
Assay: pull-down

Chain of hMLH1-hMLH3 (P40692 whole entry, chain 1 of 2): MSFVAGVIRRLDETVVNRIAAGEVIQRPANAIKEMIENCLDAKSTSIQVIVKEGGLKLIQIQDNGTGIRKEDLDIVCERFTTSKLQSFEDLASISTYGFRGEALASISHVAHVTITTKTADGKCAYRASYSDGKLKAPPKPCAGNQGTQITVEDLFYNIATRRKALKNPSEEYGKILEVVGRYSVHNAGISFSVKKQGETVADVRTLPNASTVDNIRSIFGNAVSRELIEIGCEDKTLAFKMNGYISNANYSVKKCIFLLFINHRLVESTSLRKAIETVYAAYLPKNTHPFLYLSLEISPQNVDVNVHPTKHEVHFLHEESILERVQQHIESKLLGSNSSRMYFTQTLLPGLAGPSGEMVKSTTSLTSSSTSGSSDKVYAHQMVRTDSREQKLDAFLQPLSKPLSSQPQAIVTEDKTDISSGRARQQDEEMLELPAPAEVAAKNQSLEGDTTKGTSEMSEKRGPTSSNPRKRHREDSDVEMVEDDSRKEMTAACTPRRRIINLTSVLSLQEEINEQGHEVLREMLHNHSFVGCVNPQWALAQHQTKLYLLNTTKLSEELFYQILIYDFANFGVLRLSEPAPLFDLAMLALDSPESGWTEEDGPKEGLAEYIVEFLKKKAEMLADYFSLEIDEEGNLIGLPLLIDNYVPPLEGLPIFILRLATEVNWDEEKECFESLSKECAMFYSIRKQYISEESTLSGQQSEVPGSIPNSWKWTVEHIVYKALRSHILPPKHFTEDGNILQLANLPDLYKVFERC
Chain of hMLH1-hMLH3 (Q9UHC1 whole entry, chain 2 of 2): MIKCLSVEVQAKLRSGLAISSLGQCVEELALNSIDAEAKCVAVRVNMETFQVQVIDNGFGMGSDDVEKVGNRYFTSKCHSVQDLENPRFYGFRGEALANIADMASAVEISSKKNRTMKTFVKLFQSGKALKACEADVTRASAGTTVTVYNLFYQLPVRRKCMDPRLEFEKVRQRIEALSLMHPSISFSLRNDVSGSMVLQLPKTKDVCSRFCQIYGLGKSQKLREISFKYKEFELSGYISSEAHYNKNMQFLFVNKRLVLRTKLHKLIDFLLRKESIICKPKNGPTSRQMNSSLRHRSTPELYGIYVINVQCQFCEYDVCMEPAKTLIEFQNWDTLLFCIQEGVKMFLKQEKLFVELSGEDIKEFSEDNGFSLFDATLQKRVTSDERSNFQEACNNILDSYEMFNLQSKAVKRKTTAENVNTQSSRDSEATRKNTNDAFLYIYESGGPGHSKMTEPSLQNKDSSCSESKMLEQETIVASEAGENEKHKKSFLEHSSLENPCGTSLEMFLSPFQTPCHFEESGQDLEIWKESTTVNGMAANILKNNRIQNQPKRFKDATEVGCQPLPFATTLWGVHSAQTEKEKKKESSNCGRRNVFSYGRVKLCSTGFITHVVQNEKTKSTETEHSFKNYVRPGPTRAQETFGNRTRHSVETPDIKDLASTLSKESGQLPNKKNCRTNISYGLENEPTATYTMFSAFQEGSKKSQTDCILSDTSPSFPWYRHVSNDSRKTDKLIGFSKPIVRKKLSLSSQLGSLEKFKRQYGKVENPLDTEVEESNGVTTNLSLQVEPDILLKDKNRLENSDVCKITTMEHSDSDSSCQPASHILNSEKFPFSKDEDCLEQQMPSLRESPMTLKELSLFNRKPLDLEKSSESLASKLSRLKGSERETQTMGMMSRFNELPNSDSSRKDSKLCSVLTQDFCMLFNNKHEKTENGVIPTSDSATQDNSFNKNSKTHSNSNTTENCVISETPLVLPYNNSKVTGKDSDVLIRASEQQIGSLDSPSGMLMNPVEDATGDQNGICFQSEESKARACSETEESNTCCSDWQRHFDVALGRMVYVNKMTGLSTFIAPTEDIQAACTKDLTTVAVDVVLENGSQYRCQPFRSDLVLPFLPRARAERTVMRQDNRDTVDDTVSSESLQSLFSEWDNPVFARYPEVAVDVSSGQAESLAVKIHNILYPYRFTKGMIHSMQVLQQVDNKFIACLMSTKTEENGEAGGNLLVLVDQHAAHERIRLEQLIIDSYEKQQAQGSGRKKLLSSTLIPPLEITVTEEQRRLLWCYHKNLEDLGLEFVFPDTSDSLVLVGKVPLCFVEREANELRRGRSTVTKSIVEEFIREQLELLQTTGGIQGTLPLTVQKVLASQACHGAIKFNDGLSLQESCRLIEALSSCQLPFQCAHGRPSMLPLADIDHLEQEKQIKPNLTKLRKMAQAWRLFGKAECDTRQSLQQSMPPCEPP

binding result: binds
B1: hEXO1(D173A) (enzyme)
chain: MGIQGLLQFIKEASEPIHVRKYKGQVVAVDTYCWLHKGAIACAEKLAKGEPTDRYVGFCMKFVNMLLSHGIKPILVFDGCTLPSKKEVERSRRERRQANLLKGKQLLREGKVSEARECFTRSINITHAMAHKVIKAARSQGVDCLVAPYEADAQLAYLNKAGIVQAIITEDSALLAFGCKKVILKMDQFGNGLEIDQARLGMCRQLGDVFTEEKFRYMCILSGCDYLSSLRGIGLAKACKVLRLANNPDIVKVIKKIGHYLKMNITVPEDYINGFIRANNTFLYQLVFDPIKRKLIPLNAYEDDVDPETLSYAGQYVDDSIALQIALGNKDINTFEQIDDYNPDTAMPAHSRSHSWDDKTCQKSANVSSIWHRNYSPRPESGTVSDAPQLKENPSTVGVERVISTKGLNLPRKSSIVKRPRSAELSEDDLLSQYSLSFTKKTKKNSSEGNKSLSFSEVFVPDLVNGPTNKKSVSTPPRTRNKFATFLQRKNEESGAVVVPGTRSRFFCSSDSTDCVSNKVSIQPLDETAVTDKENNLHESEYGDQEGKRLVDTDVARNSSDDIPNNHIPGDHIPDKATVFTDEESYSFESSKFTRTISPPTLGTLRSCFSWSGGLGDFSRTPSPSPSTALQQFRRKSDSPTSLPENNMSDVSQLKSEESSDDESHPLREEACSSQSQESGEFSLQSSNASKLSQCSSKDSDSEESDCNIKLLDSQSDQTSKLRLSHFSKKDTPLRNKVPGLYKSSSADSLSTTKIKPLGPARASGLSKKPASIQKRKHHNAENKPGLQIKLNELWKNFGFKKDSEKLPPCKKPLSPVRDNIQLTPEAEEDIFNKPECGRVQRAIFQ
